Measured values: patent publication US20250026842A1 (JIANGSU HENGRUI PHARMACEUTICALS, published 2025)
Where two headings read alike, the source gives them in different places.

Columns and labels:
[1] = molecular target: T1, human 4-1BB on the surface of HEK293-Hu4-1BB cells (human, UniProt Q07011 24-255); test: FACS on HEK293 cells highly expressing human 4-1BB
T1 construct: whole, on cells; also called CD137; human 4-1BB antigen
Excerpt: (§1) HEK293-Hu4-1BB cells were obtained by transient transfection of HEK293 cells (ATCC CRL-1573) with a gene expressing human 4-1BB protein or polypeptide (CD137 cDNA ORF Clone, Human, C-OFPSpark tag; purchased from Sino Biological, Cat #HG10041-ACR). The cell culture medium was DMEM (Gibco, Cat #11995065) containing 10% fetal bovine serum. The experimental medium was sterile PBS (phosphate-buffered saline, pH 7.40) containing 2% fetal bovine serum. HEK293-Hu4-1BB cells were washed with the experimental medium twice and seeded into a 96-well U-bottom plate at 1×10⁵ HEK293-Hu4-1BB cells per well. Different concentrations of the anti-4-1BB single-domain antibody VHH-Fc samples to be tested were added. The cells were incubated at 4° C. for 1 h and then washed with the experimental medium twice. Then the goat anti-human IgG (H+L) Alexa Fluor 488 antibody (Thermo, Cat #A11013) was added. After two washes, fluorescence signal values were measured using a flow cytometer. Urelumab was used as a positive control.
A comparison of the antigen-binding activity of C5_V2 and C5_V2-YTI was made using a FACS assay as described in Example 5.

[2] = molecular target: T1, human 4-1BB on the surface of …; test: FACS on HEK293 cells highly expressing human 4-1BB; remark: listed apart in the source
Excerpt: as §1
The antigen-binding activity of the humanized antibodies was measured using a FACS assay as described in Example 2.

[3] = molecular target: T1, human 4-1BB on the surface of …; test: cell-based or functional assay
[4] = molecular target: T1, human 4-1BB on the surface of …; test: cell-based or functional assay; remark: listed apart in the source

T1 sequence (Q07011 24-255): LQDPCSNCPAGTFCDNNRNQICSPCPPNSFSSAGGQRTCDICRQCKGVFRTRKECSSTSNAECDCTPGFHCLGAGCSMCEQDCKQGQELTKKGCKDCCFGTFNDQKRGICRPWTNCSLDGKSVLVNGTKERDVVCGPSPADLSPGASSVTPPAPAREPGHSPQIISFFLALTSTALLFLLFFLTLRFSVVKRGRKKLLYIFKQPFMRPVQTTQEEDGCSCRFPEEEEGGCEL

B1: Urelumab (antibody, V domains shown)
VH: QVQLQQWGAGLLKPSETLSLTCAVYGGSFSGYYWSWIRQSPEKGLEWIGEINHGGYVTYNPSLESRVTISVDTSKNQFSLKLSSVTAADTAVYYCARDYGPGNYDWYFDLWGRGTLVTVSS
VL: EIVLTQSPATLSLSPGERATLSCRASQSVSSYLAWYQQKPGQAPRLLIYDASNRATGIPARFSGSGSGTDFTLTISSLEPEDFAVYYCQQRSNWPPALTFGGGTKVEIK
- EC50 [1]: 1.64 nM
- Maximal fluorescence value [1]: 39700
- EC50 [2]: 1.18 nM
- Maximal fluorescence value [2]: 1000
- EC50, 4-1BB/NF-κB luciferase reporter, FcγRIIb cross-linking [3]: 0.027 nM
- EC50, 4-1BB/NF-κB luciferase reporter, no FcγRIIb cross-linking [3]: 2.19 nM
- Emax, 4-1BB/NF-κB luciferase reporter, FcγRIIb cross-linking [3]: 9.39 relative to antibody-free group
- Emax, 4-1BB/NF-κB luciferase reporter, no FcγRIIb cross-linking [3]: 4.3 relative to antibody-free group
- Factor of variation in Emax, FcγRIIb-mediated activation of HEK293-4-1BB cells [4]: 2.61 fold
- Factor of variation in Emax, activation of HEK293-4-1BB cells [4]: 1.7 fold
